Positions count from the first letter of the chain named. Where two headings read alike, the source gives them in different places.

This note sets out measurements from patent US20240158538A1 (HUMMINGBIRD BIOSCIENCE HOLDINGS PTE, published 2024).

The target of test [1] is T1, human VISTA polypeptide (ELISA coat) (human, UniProt Q9H7M9 33-194).
T1 construct: Recombinant protein (Sino Biological) coated on ELISA plates; construct not described
Description: ELISA, plate coated with B7H5 (VISTA). (In general: An ELISA detects its analyte on a solid surface through an enzyme-linked reagent.)

Test [2] concerns the target T2, B7H3 (ELISA coat) (human, UniProt Q5ZPR3 29-461, limits assumed).
T2 construct: Species read from the list 'human VISTA, PD-1, PD-L1, ...'; also called CD276
T2 sequence (looked up): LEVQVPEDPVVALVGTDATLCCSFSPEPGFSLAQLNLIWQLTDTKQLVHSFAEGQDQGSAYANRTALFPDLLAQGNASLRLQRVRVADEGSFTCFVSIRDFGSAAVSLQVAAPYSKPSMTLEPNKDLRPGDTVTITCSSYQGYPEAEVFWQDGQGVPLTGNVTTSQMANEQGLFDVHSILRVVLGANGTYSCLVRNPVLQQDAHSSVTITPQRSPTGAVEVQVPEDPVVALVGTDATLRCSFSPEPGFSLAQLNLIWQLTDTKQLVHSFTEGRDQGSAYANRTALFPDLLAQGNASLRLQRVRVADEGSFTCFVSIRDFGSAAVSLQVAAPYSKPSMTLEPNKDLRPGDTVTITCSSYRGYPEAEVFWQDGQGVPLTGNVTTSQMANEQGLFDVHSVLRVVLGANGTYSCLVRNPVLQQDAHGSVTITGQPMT
The experiment in a line: ELISA, plate coated with B7H3.

Test [3] concerns the target T3, B7H7 (ELISA coat) (human, UniProt Q9UM44 23-344, limits assumed).
T3 construct: Species read from the list 'human VISTA, PD-1, PD-L1, ...'; also called HHLA2
T3 sequence (looked up): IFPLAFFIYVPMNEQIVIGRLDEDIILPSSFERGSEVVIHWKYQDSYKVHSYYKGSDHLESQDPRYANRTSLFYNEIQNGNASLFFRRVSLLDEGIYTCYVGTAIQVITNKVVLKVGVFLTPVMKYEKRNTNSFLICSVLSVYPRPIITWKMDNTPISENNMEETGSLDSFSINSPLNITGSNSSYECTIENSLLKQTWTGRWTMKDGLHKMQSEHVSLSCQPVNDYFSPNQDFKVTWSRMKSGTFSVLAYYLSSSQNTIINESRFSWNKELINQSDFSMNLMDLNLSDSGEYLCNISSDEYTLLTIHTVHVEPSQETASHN
Description: ELISA, plate coated with B7H7.

Test [4] addresses T4, human PD-L1 (ELISA coat) (human, UniProt Q9NZQ7 19-239). The experiment in a line: ELISA, plate coated with B7H1 (PDL1).
In test [5] the target is T5, CTLA4 (ELISA coat) (human, UniProt P16410 36-162, limits assumed).
T5 construct: Species read from the list 'human VISTA, PD-1, PD-L1, ...'
Description: ELISA, plate coated with CTLA4.

Test [6] deals with T6, PD-1 (ELISA coat) (human, UniProt Q15116 25-167, limits assumed).
T6 construct: Species read from the list 'human VISTA, PD-1, PD-L1, ...'
Description: ELISA, plate coated with PD1.

The target in test [7] is T7, B7H4 (ELISA coat) (human, UniProt Q7Z7D3 25-258, limits assumed).
T7 construct: Species read from the list 'human VISTA, PD-1, PD-L1, ...'; also called VTCN1
T7 sequence (looked up): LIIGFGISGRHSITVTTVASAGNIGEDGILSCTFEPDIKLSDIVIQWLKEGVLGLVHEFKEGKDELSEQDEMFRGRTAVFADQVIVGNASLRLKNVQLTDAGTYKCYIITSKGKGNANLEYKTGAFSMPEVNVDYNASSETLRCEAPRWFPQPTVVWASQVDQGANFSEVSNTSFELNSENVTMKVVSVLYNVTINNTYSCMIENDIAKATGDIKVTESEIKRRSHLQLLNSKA
The experiment in a line: ELISA, plate coated with B7H4.

For test [8], the target named is T8, B7H6 (ELISA coat) (human, UniProt Q68D85 25-262, limits assumed).
T8 construct: Species read from the list 'human VISTA, PD-1, PD-L1, ...'; also called NCR3LG1
T8 sequence (looked up): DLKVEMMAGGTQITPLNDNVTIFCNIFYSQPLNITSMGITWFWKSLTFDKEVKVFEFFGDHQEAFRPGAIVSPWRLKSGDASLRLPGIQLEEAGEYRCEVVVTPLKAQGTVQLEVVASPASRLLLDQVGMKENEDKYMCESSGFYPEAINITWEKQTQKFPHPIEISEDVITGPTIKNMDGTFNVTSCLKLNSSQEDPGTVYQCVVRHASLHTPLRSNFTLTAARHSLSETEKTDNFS
The experiment in a line: ELISA, plate coated with B7H6.

The target of test [9] is T4, human PD-L1 (ELISA coat). The experiment in a line: ELISA, plate coated with B7H1 (PDL1). This is another data set of the same source.
The target of test [10] is T6, PD-1 (ELISA coat). Description: ELISA, plate coated with PD1. This is another data set of the same source.
In test [11] the target is T8, B7H6 (ELISA coat). The experiment in a line: ELISA, plate coated with B7H6. The source holds these as a separate data set.
Test [12] addresses T5, CTLA4 (ELISA coat). The experiment in a line: ELISA, plate coated with CTLA4. This is another data set of the same source.
For test [13], the target named is T3, B7H7 (ELISA coat). The experiment in a line: ELISA, plate coated with B7H7. The source holds these as a separate data set.
In test [14] the target is T2, B7H3 (ELISA coat). The experiment in a line: ELISA, plate coated with B7H3. The source holds these as a separate data set.
Test [15] has as its target T7, B7H4 (ELISA coat). The experiment in a line: ELISA, plate coated with B7H4. The source holds these as a separate data set.
In test [16] the target is T8, B7H6 (ELISA coat). The experiment in a line: ELISA, plate coated with B7H6. This is another data set of the same source.
The target in test [17] is T4, human PD-L1 (ELISA coat). The experiment in a line: ELISA, plate coated with B7H1 (PDL1). The source holds these as a separate data set.
The target in test [18] is T5, CTLA4 (ELISA coat). Description: ELISA, plate coated with CTLA4. The source holds these as a separate data set.
For test [19], the target named is T6, PD-1 (ELISA coat). The experiment in a line: ELISA, plate coated with PD1. This is another data set of the same source.
The target of test [20] is T7, B7H4 (ELISA coat). The experiment in a line: ELISA, plate coated with B7H4. This is another data set of the same source.
Test [21] addresses T2, B7H3 (ELISA coat). The experiment in a line: ELISA, plate coated with B7H3. The source holds these as a separate data set.
For test [22], the target named is T3, B7H7 (ELISA coat). The experiment in a line: ELISA, plate coated with B7H7. This is another data set of the same source.

T4 sequence (Q9NZQ7 19-239 limits assumed): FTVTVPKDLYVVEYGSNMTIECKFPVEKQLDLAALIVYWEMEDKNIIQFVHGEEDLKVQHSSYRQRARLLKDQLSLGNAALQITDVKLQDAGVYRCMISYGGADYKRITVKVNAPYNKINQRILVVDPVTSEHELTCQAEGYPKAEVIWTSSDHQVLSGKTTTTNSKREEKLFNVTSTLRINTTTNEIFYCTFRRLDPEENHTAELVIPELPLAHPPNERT
T5 sequence (P16410 36-162 limits assumed): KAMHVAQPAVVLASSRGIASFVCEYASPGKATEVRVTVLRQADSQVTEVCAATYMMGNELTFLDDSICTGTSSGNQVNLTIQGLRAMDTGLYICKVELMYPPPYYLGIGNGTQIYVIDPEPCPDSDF
T6 sequence (Q15116 25-167 limits assumed): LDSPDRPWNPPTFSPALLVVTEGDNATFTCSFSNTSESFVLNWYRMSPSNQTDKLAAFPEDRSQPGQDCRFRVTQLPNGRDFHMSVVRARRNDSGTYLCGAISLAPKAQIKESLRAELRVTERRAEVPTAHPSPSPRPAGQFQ

B1: anti-VISTA clone V4-C28 IgG1 (antibody, V domains shown)
VH: QVQLQESGPGLVKPSDTLSLTCTVSGYSITSDYTWNWIRQTPGKGLEWIGHITYSGSVSYNPSLRSRVTISRDTSKNQFSLKLSSVTAADTATYSCARALYYPWYFDVWGTGTTVTVSS
VL: EIVLTQSPATLSLSPGERATLSCRASSSVGYIHWYQQKPGQAPRPLIYATSYRATGIPARFSGSGSGTDNTLTISSLEPEDSAVYYCQQWSSYPPITFGGGTKLEVKR
notes: Human IgG1/kappa
With B1, in [1], the “EC50 (read off the curve)” value was approximately 0.02 nM. In addition, the binding result with B7H3 (ELISA coat) [2], with B7H7 (ELISA coat) [3], in the test with human PD-L1 (ELISA coat) [4], with CTLA4 (ELISA coat) [5], in the test with PD-1 (ELISA coat) [6] and in the test with B7H4 (ELISA coat) [7] was “no binding (tested: log -7.5 (about 3e-8 M))” in each case. Besides, in the test with B7H6 (ELISA coat) [8], the binding result is listed as “no binding (tested: log -7.5 (about 3e-8 M))”.

B2: anti-VISTA clone V4-C31 IgG1 (antibody, V domains shown)
VH: B1 VH
VL: B1 VL with S51Y, A54T
notes: Human IgG1/kappa
Take B2: the binding result with human PD-L1 (ELISA coat) [9], with PD-1 (ELISA coat) [10], with B7H6 (ELISA coat) [11], with CTLA4 (ELISA coat) [12], with B7H7 (ELISA coat) [13] and with B7H3 (ELISA coat) [14] was “no binding (tested: log -7.5 (about 3e-8 M))” throughout. Also, in the test with B7H4 (ELISA coat) [15], the binding result was “no binding (tested: log -7.5 (about 3e-8 M))”.

B3: anti-VISTA clone V4-C30 IgG1 (antibody, V domains shown)
VH: B1 VH
VL: B1 VL with S51Y
notes: Human IgG1/kappa
For B3, the binding result in the test with B7H6 (ELISA coat) [16], with human PD-L1 (ELISA coat) [17], with CTLA4 (ELISA coat) [18], in the test with PD-1 (ELISA coat) [19], with B7H4 (ELISA coat) [20] and in the test with B7H3 (ELISA coat) [21] was “no binding (tested: log -7.5 (about 3e-8 M))” throughout. Moreover, in the test with B7H7 (ELISA coat) [22], the binding result is “no binding (tested: log -7.5 (about 3e-8 M))”.

Broadly, the EC50 (read off the curve) is the concentration giving half of the maximal effect.
